{
  "source": "patent US20170355774A1",
  "about": "(Regeneron, published 2017)",
  "key": {"[1]": {"biological_target": "T1, human GITR (amino acids M1-V241, NCBI Accession #NP_004186.1) expressed on cells (human, UniProt Q9Y5U5 26-241)", "T1 sequence": "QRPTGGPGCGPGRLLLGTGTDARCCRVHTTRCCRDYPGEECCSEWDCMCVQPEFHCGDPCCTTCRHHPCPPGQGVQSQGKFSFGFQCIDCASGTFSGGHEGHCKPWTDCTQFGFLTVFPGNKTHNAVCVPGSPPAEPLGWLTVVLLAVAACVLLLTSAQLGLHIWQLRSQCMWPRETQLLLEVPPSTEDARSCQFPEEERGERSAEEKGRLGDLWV", "assay": "cell-based or functional assay"}, "[2]": {"biological_target": "T1, human GITR (amino acids M1-V241, NCBI …)", "assay": "cell-based or functional assay", "remark": "listed apart in the source"}, "[3]": {"biological_target": "T1, human GITR (amino acids M1-V241, NCBI …)", "assay": "cell-based or functional assay", "remark": "listed apart in the source"}, "hGITR.mFc": {"biological_target": "T2, hGITR.mFc (human)", "T2 construct": "soluble dimeric construct with mouse Fc; also called dimeric human GITR", "T2 chain": "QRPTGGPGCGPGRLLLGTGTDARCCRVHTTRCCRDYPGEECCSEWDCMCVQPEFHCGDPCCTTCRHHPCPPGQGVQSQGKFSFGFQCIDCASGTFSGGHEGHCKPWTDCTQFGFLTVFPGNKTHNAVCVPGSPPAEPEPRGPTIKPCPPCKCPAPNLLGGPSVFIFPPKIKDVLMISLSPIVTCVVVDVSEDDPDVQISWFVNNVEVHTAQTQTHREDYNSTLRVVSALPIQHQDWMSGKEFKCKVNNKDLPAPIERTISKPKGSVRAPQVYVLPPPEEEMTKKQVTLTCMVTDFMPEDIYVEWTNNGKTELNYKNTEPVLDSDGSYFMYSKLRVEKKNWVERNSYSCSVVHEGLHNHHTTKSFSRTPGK", "assay": "SPR 37C, mAb capture"}, "mfGITR.mmh": {"biological_target": "T3, mfGITR.mmh (Macaca fasicularis)", "T3 construct": "soluble monomeric construct; also called Macaca fasicularis (mf) GITR.mmh; cynomolgus GITR protein", "T3 chain": "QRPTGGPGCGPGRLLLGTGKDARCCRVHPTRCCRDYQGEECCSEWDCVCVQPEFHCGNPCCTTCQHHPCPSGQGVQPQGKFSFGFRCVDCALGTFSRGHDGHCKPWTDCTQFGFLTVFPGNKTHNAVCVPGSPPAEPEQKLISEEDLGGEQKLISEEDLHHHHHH", "assay": "SPR 37C, mAb capture"}, "hGITR.mmh": {"biological_target": "T4, hGITR.mmh (human)", "T4 construct": "soluble monomeric construct; also called human (h) GITR.mmh; monomeric human GITR", "T4 chain": "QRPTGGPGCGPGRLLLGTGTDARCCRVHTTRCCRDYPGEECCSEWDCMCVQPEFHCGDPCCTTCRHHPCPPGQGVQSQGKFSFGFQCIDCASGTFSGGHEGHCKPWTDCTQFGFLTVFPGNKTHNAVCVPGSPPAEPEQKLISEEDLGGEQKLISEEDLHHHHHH", "assay": "SPR 37C, mAb capture"}, "[4]": {"biological_target": "T1, human GITR (amino acids M1-V241, NCBI …)", "assay": "ECL cell binding, hGITR/HEK293-D9", "procedure,_shortened": "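Cells blocked with 2% BSA, then antibody dilutions from 1.7 pM to 100 nM added 1 h at RT. Bound antibody detected with SULFO-TAG anti-human kappa antibody, electrochemiluminescence read, RLU fitted by four-parameter logistic; signal at 100 nM on hGITR cells versus parental cells also recorded.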"}, "[5]": {"biological_target": "T1, human GITR (amino acids M1-V241, NCBI …)", "assay": "cell-based or functional assay", "remark": "listed apart in the source"}, "[6]": {"biological_target": "T1, human GITR (amino acids M1-V241, NCBI …)", "assay": "cell-based or functional assay", "remark": "listed apart in the source"}},
  "data": [
    {"binder": "H4H14516P (antibody, human IgG4, V domains shown, human IgG4 (H4H)) VH: EVQLVESGGGLVQPGGSLRLSCAASGFTFSNYEMYWVRQAPGKGLEWVSYISSSGTTIYYADSVKGRFSVSRENARSSLYLQMNSLRVEDSAVYFCAKYNWNSFYGLDVWGQGTTVTVSS VL: AIQMTQSPSSLSASVGDRVTITCRASQDIRNDLGWYQQKPGKAPKLLISAASSLQGGVPSRFSGSGSGTDFTLTISSLQPADFATYYCLQEYNYALTFGGGTKVEIK", "values": [
      {"measurement": "fold activation, T-cell proliferation, 33 nM, FcgR anchored, donor 1", "setting": "[1]", "result": 1.2, "unit": "fold"},
      {"measurement": "fold activation, T-cell proliferation, 33 nM, FcgR anchored, donor 2", "setting": "[1]", "result": 0.9, "unit": "fold"},
      {"measurement": "fold activation, T-cell proliferation, 33 nM, FcgR anchored, donor 3", "setting": "[1]", "result": 1.2, "unit": "fold"},
      {"measurement": "fold activation, T-cell proliferation, 33 nM, FcgR anchored, donor 4", "setting": "[1]", "result": 1.3, "unit": "fold"},
      {"measurement": "fold activation, T-cell proliferation, 33 nM, FcgR anchored, donor 5", "setting": "[1]", "result": 1.1, "unit": "fold"},
      {"measurement": "fold activation, T-cell proliferation, 33 nM, FcgR anchored, mean", "setting": "[1]", "result": 1.1, "unit": "fold"},
      {"measurement": "fold activation, T-cell proliferation, plate-bound Ab 10.6 nM, donor 1", "setting": "[2]", "result": 1, "unit": "fold"},
      {"measurement": "fold activation, T-cell proliferation, plate-bound Ab 10.6 nM, donor 2", "setting": "[2]", "result": 4, "unit": "fold"},
      {"measurement": "fold activation, T-cell proliferation, plate-bound Ab 10.6 nM, donor 3", "setting": "[2]", "result": 4, "unit": "fold"},
      {"measurement": "fold activation, T-cell proliferation, plate-bound Ab 10.6 nM, donor 4", "setting": "[2]", "result": 12, "unit": "fold"},
      {"measurement": "fold activation, T-cell proliferation, plate-bound Ab 10.6 nM, donor 5", "setting": "[2]", "result": 4, "unit": "fold"},
      {"measurement": "fold activation, T-cell proliferation, plate-bound Ab 10.6 nM, donor 6", "setting": "[2]", "result": 14, "unit": "fold"},
      {"measurement": "fold activation, T-cell proliferation, plate-bound Ab 10.6 nM, donor 7", "setting": "[2]", "result": 4, "unit": "fold"},
      {"measurement": "fold activation, T-cell proliferation, plate-bound Ab 10.6 nM, donor 8", "setting": "[2]", "result": 1, "unit": "fold"},
      {"measurement": "fold activation, T-cell proliferation, plate-bound Ab 10.6 nM, mean", "setting": "[2]", "result": 5, "unit": "fold"},
      {"measurement": "% Activation, NF-kB-Luc, non-anchored", "setting": "[3]", "result": 45, "unit": "%"},
      {"measurement": "% Blocking, NF-kB-Luc, non-anchored", "setting": "[3]", "result": 70, "unit": "%"},
      {"measurement": "EC50, hGITR activation, NF-kB-Luc, non-anchored", "setting": "[3]", "result": 0.8, "unit": "nM"},
      {"measurement": "IC50, blocking of hGITRL stimulation, NF-kB-Luc, non-anchored", "setting": "[3]", "result": 2.3, "unit": "nM"},
      {"measurement": "Kd", "setting": "hGITR.mFc", "result": 1.08, "unit": "nM"},
      {"measurement": "koff", "setting": "hGITR.mFc", "result": 0.00181, "unit": "s⁻¹"},
      {"measurement": "kon", "setting": "hGITR.mFc", "result": "1.68e+06", "unit": "M⁻¹ s⁻¹"},
      {"measurement": "t½", "setting": "hGITR.mFc", "result": 6.4, "unit": "min"},
      {"measurement": "Kd", "setting": "mfGITR.mmh", "result": 58.7, "unit": "nM"},
      {"measurement": "koff", "setting": "mfGITR.mmh", "result": 0.0112, "unit": "s⁻¹"},
      {"measurement": "kon", "setting": "mfGITR.mmh", "result": 190000, "unit": "M⁻¹ s⁻¹"},
      {"measurement": "t½", "setting": "mfGITR.mmh", "result": 1, "unit": "min"},
      {"measurement": "Kd", "setting": "hGITR.mmh", "result": 32.7, "unit": "nM"},
      {"measurement": "koff", "setting": "hGITR.mmh", "result": 0.00738, "unit": "s⁻¹"},
      {"measurement": "kon", "setting": "hGITR.mmh", "result": 225000, "unit": "M⁻¹ s⁻¹"},
      {"measurement": "t½", "setting": "hGITR.mmh", "result": 1.6, "unit": "min"},
      {"measurement": "Average Signal (RLU) at 100 nM", "setting": "[4]", "result": 10300, "unit": "RLU"},
      {"measurement": "EC50", "setting": "[4]", "result": 0.7, "unit": "nM"},
      {"measurement": "fold activation, T-cell proliferation, 22 nM, non-anchored, donor 1", "setting": "[5]", "result": 0.7, "unit": "fold"},
      {"measurement": "fold activation, T-cell proliferation, 22 nM, non-anchored, donor 2", "setting": "[5]", "result": 1.2, "unit": "fold"},
      {"measurement": "fold activation, T-cell proliferation, 22 nM, non-anchored, donor 3", "setting": "[5]", "result": 1, "unit": "fold"},
      {"measurement": "fold activation, T-cell proliferation, 22 nM, non-anchored, donor 4", "setting": "[5]", "result": 0.9, "unit": "fold"},
      {"measurement": "fold activation, T-cell proliferation, 22 nM, non-anchored, mean", "setting": "[5]", "result": 0.9, "unit": "fold"}
    ]},
    {"binder": "H1H14512P (antibody, human IgG1, V domains shown, human IgG1 (H1H)) VH: QVQLVESGGGVVQPGRSLRLSCAVSGFTLSSYGMDWVRQAPGKGLEWVAVIWYDGSNKYYSDSVKGRFTISRDNSKNTLFLQMNSLRADDTAVYYCARDGELGLDYYSGMDVWGQGTTVTVSS VL: DIQMTQSPSSLSASVGDRVTITCRASQDIRNDLGWYQQKPGKAPKRLIYGASSLQSGVPSRFSGSGSGTEFTLTISSLQPEDFATYYCLQLNSYPRTFGQGTKVEIK", "values": [
      {"measurement": "% Activation, NF-kB-Luc, non-anchored", "setting": "[3]", "result": 20, "unit": "%"},
      {"measurement": "% Blocking, NF-kB-Luc, non-anchored", "setting": "[3]", "result": 100, "unit": "%"},
      {"measurement": "EC50, hGITR activation, NF-kB-Luc, non-anchored", "setting": "[3]", "result": 1.2, "unit": "nM"},
      {"measurement": "IC50, blocking of hGITRL stimulation, NF-kB-Luc, non-anchored", "setting": "[3]", "result": 0.7, "unit": "nM"},
      {"measurement": "Average Signal (RLU) at 100 nM", "setting": "[4]", "result": 4620, "unit": "RLU"},
      {"measurement": "EC50", "setting": "[4]", "result": 0.25, "unit": "nM"},
      {"measurement": "EC50, hGITR activation, NF-kB-Luc, FcgR anchored", "setting": "[6]", "result": 0.02, "unit": "nM"},
      {"measurement": "Fold Activation over basal signal, NF-kB-Luc, FcgR anchored", "setting": "[6]", "result": 7, "unit": "fold"},
      {"measurement": "IC50, blocking of hGITRL stimulation, NF-kB-Luc, FcgR anchored", "setting": "[6]", "result": 0.1, "unit": "nM"}
    ]}
  ]
}
